Here are results for two substances from patent US20160017031A1.

For experiment [1], the target named is GVL peptide-HLA-A2 (hCG beta 47-55 peptide … in HLA-A2 with beta-2 microglobulin) (human). Put plainly: cell-based or functional assay.
The target of experiment [2] is TMT peptide-HLA-A2 (hCG beta 40-48 peptide … in HLA-A2 with beta-2 microglobulin) (human). The experiment can be described thus: cell-based or functional assay.
In experiment [3] the target is HLA-A2 (HLA-A*0201) class I molecule without a defined test peptide (human). Put plainly: flow cytometry, unpulsed T2 cells, 1 µg per stain. On the technique in general: Flow cytometry measures light scatter and fluorescence of single cells or particles in a stream.
The target of experiment [4] is GVL peptide-HLA-A2 (hCG beta 47-55 peptide … in HLA-A2 with beta-2 microglobulin) (human). Put plainly: flow cytometry, GVL-pulsed T2 cells, 1 µg antibody.
The target is the same in experiment [5]. The experiment can be described thus: flow cytometry, GVL-pulsed T2 cells, 1 µg per stain.
The target of experiment [6] is TMT peptide-HLA-A2 (hCG beta 40-48 peptide … in HLA-A2 with beta-2 microglobulin) (human). Put plainly: flow cytometry, TMT-pulsed T2 cells, 1 µg per stain.
The target in experiment [7] is VLQ peptide-HLA-A2 (hCG beta peptide … in HLA-A2 with beta-2 microglobulin) (human). The experiment can be described thus: flow cytometry, VLQ-pulsed T2 cells, 1 µg per stain.
Experiment [8] addresses GVL peptide-HLA-A2 (hCG beta 47-55 peptide … in HLA-A2 with beta-2 microglobulin) (human). Put plainly: flow cytometry, GVL-pulsed T2 cells, 0.01 µg antibody.
The target is the same in experiment [9]. The experiment can be described thus: flow cytometry, T2 cells pulsed with 50 to 0.1 µg/ml GVL peptide.
For experiment [10], the target named is HLA-A2 (HLA-A*0201) class I molecule without a defined test peptide (human). Put plainly: cell-based or functional assay.

In turn, RL4B (antibody) showed an ADCC of MDA-231 cells, human PBMC, E:T 20:1 in experiment [1] of 6.4 to 13.4%. The substance also had an ADCC of MDA-MB-231 cells, human PBMC, E:T 30:1, 10 µg/ml 3.2G1 in experiment [1] of 6.8 to 9.6%. This substance came in with an ADCC of MDA-MB-231 cells, human PBMC, E:T 30:1, 10 µg/ml 3.2G1 (average) in experiment [1] of 8.7%. This substance showed a CDC specific lysis of T2 cells pulsed with 50 to 0.1 µg/ml GVL peptide in experiment [1] of 6 to 73%. This substance also registered a GVL peptide concentration giving half-maximal CDC lysis in experiment [1] of 6 µg/mL. This substance also had a complement-dependent cytolysis (CDC) of TMT-pulsed T2 cells in [2] of 2%. Further, the MFI in experiment [3] was determined as 9 MFI; in [4], 388 MFI; in experiment [5], 141 MFI; in experiment [6] it was 7.5 MFI; in experiment [7], 7.3 MFI; in experiment [8], 14.3 MFI. For the same substance, the MFI in [9] was in the range of 10 to 150 MFI.
With BB7.2 monoclonal antibody (anti-HLA-A2), the CDC specific lysis of GVL-pulsed T2 cells in experiment [10] was 53 to 70%. In experiment [9], this substance came in with an MFI of 250 to 350 MFI.
